Laboratory results as given in publication PMC3021526, “Rise and Fall of an Anti-MUC1 Specific Antibody” (PLoS ONE, 2011).
Substitutions are numbered along the chain they refer to. Each block holds one binder with its values, some of them ahead of it.

How the values were obtained:
[1] = target: T1, MUC1 15 aa peptide with cysteine (…-C) (human); experiment: SPR; Biacore 2000; about 50 RU MUC1 15 aa peptide with cysteine coupled on a CM5 chip (NHS/EDC, PDEA); serial dilutions of scFv (0-400 nM) at 50 µL/min; 1:1 Langmuir separate fitting; IIB6 by steady-state model
T1 sequence (peptide): APDTRPAPGSTAPPAC

[2] = target: synthetic MUC1 glycopeptide APDT(GalNAc)… (human); experiment: SPR; IIB6 on the MUC1 glycopeptide; data not shown
[3] = target: human anti-MUC1 scFv IIB6 (human); experiment: SEC; 80 µg IMAC purified scFv on Superdex200 10/300, PBS, 0.5 mL/min; monomer to dimer
[4] = target: MUC1 on MCF-7 cells (human (endogenous in MCF-7)) (UniProt P15941); experiment: flow cytometry on cells; internalisation assay: MCF-7 cells with 10 µg/ml antibody on ice 1 h, washed, 1 h at 4°C; surface antibody detected by PE-conjugated mouse anti-human IgG
[5] = target: T2, MUC1 15 aa peptide with cysteine (APDTRPAPGSTAPPA-C) (Homo sapiens (synthetic peptide)); experiment: SPR; Biacore 2000; about 50 RU MUC1 15 aa peptide with cysteine coupled on a CM5 chip (NHS/EDC, PDEA); serial dilutions of scFv (0-400 nM) at 50 µL/min; 1:1 Langmuir separate fitting; IIB6 by steady-state model; settings: both partners purified
T2 construct: 15 residues of the tandem repeat (VNTR) of human MUC1; added C-terminal cysteine, used for coupling to the chip; also called MUC1 peptide; MUC1 peptide antigen
T2 chain: APDTRPAPGSTAPPAC

[6] = target: T3, MUC1 32 aa peptide with a C-terminal cysteine (APDTRPAPGSTAPPAHGVTSAPDTRPAPGSTA-C) (Homo sapiens (synthetic peptide)); experiment: ELISA; MUC1 32 aa peptide with C-terminal cysteine coated in PBS over night at 4°C; dilution series of purified scFv, scFv-Fc or IgG in 2% M-PBST, 1.5 h at RT; scFv detected by 9E10 (c-myc), scFv-Fc and IgG by anti-human Fc HRP; settings: both partners purified
T3 construct: 32 residues of the tandem repeats (VNTR) of human MUC1; added C-terminal cysteine; also called MUC1 peptide antigen (32mer cys); MUC1 32mer Cys peptide
T3 chain: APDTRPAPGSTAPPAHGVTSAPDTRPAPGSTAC

[7] = target: affinity matured anti-MUC1 scFv HT220-M-G8 (human); experiment: SEC; 80 µg IMAC purified scFv on Superdex200 10/300, PBS, 0.5 mL/min; monomer to dimer

Sequence of MUC1 on MCF-7 cells (human (endogenous in MCF-7)) (P15941 24-1255): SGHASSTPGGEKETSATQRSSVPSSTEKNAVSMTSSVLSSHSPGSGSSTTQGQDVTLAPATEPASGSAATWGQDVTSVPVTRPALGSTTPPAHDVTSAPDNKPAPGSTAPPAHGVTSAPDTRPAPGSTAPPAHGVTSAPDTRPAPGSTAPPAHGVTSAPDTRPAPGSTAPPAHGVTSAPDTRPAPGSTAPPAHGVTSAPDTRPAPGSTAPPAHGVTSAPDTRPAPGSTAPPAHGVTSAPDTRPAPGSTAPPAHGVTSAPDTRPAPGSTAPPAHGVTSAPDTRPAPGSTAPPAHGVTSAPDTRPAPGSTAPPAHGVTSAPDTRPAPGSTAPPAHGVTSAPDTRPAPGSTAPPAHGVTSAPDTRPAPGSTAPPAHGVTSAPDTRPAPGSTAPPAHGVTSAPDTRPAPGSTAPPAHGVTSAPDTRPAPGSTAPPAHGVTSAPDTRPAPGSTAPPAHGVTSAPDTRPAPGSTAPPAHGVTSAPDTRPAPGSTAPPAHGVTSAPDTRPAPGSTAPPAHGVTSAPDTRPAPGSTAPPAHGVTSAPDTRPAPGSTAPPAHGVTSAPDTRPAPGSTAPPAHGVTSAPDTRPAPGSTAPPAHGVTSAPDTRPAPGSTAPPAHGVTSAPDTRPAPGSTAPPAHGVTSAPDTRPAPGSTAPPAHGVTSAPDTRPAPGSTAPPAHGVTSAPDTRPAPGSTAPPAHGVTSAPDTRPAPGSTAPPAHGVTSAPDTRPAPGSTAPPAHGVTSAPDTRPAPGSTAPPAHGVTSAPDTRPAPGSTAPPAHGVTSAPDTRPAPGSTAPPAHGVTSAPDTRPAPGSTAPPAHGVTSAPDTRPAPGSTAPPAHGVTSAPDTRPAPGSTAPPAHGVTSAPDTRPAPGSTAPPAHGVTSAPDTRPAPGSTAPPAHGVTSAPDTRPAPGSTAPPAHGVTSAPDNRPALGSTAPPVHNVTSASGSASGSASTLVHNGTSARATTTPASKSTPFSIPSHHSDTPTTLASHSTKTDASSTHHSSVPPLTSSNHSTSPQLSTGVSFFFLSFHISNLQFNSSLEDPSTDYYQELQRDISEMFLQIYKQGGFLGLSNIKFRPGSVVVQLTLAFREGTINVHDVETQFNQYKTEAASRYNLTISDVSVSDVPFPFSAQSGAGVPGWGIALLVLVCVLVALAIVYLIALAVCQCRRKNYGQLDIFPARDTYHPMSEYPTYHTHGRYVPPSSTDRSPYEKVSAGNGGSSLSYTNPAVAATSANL

B1: human anti-MUC1 scFv IIB6 (scFv, V domains shown)
VH: QMQLVQSGAEVKKPGASVKVSCKASGYTFTGHYMHWVRQAPGQGLEWMGWIDPVTGGTKYAQNFQGWVTMTRDTSIRTAYMELSRLRSDDTAMYYCAREVTGDRGQFDKWGQGTLVTVAS
VL: QSVLTQPPSVSVAPGKTARITCGGNNIGSKSVHWYQQKPGQAPVLVIYYDSDRPSGIPERFSGSNSGNTATLTISRVEAGDEADYYCQVWDSSSDWVFGGGTKLTVL
- Kd [1]: 310 nM
- Kd [2]: 230 nM
- percent of the scFv dimerised [3]: 50%
- stoichiometry N [3]: 2

B2: HT186-D11 human IgG (antibody, V domains shown)
VH: B1 VH with G8E, V11L, T28S, M81L
VL: B1 VL with V44A, D50G, D52N
- percentage of MUC1 positive cells (4°C) [4]: 68%

B4: HT186-G2 human IgG (antibody, V domains shown)
VH: B1 VH with Q1R, V20L, T30A, Q43R
VL: B1 VL with D50G, P54S
notes: as the VH of m4; human IgG heavy-chain constant region from the expression vector CHK622-08; as the VL of m4; C lambda derived from the vector CHL558-0; VH and VL ordered as synthetic genes, codon optimised for rat; also called HT186-G2 IgG
- fold decrease of affinity against the scFv-Fc format [6]: ~10 fold

B5: affinity matured anti-MUC1 scFv HT186-G2 (scFv, V domains shown)
VH: B1 VH with Q1R, V20L, T30A, Q43R
VL: B1 VL with D50G, P54S
notes: From IIB6 by error-prone PCR (library A), off-rate panning; source: E. coli, IMAC purified; also culture supernatant from microtitre plates; not shown: c-myc, C-terminal, kept
- Kd [5]: ≤ 1 nM
- koff [5]: ≤ 1e-05 s⁻¹
- kon [5]: 72000 M⁻¹ s⁻¹

B9: affinity matured anti-MUC1 scFv HT220-M-G8 (scFv, V domains shown)
VH: B1 VH with K12M, T28S, Q39H, G57S, R77S
VL: B1 VL with D50G, S66T, T69M
notes: source: E. coli, IMAC purified; also culture supernatant from microtitre plates; not shown: c-myc, C-terminal, kept
- Kd [5]: 4.4 nM
- koff [5]: 0.00022 s⁻¹
- kon [5]: 50000 M⁻¹ s⁻¹
- percent of the scFv dimerised [7]: 50%
- stoichiometry N [7]: 2

More lines, now with the values ahead:

- Kd [5]: 2.1 nM
- koff [5]: 0.0001 s⁻¹
- kon [5]: 49000 M⁻¹ s⁻¹
B3: affinity matured anti-MUC1 scFv HT200-3A-C1 (scFv, V domains shown)
VH: B1 VH
VL: B1 VL with V12M, K16E, Y49N, N68K, S94I
notes: one potential N-glycosylation site in CDR2; From IIB6 by nested error-prone PCR (library B), panning in solution; source: E. coli, IMAC purified; also culture supernatant from microtitre plates; not shown: c-myc, C-terminal, kept

- Kd [5]: 0.57 nM
- koff [5]: 7.2e-05 s⁻¹
- kon [5]: 38000 M⁻¹ s⁻¹
B6: affinity matured anti-MUC1 scFv HT186-D11 (scFv, V domains shown)
VH: B1 VH with G8E, V11L, T28S, M81L
VL: B1 VL with V44A, D50G, D52N
notes: as for B5

- Kd [5]: 3.7 nM
- koff [5]: 0.00011 s⁻¹
- kon [5]: 29000 M⁻¹ s⁻¹
B7: affinity matured anti-MUC1 scFv HT220-M-D1 (scFv, V domains shown)
VH: B1 VH with Q3L, V11A, S88P
VL: B1 VL with A13V, T21I, Y49N, D50N, T69M, A83S, K103R, V106I
notes: one potential N-glycosylation site in CDR2; source: E. coli, IMAC purified; also culture supernatant from microtitre plates; not shown: c-myc, C-terminal, kept

- Kd [5]: 1.3 nM
- koff [5]: 2.1e-05 s⁻¹
- kon [5]: 35000 M⁻¹ s⁻¹
B8: affinity matured anti-MUC1 scFv HT186-B7 (scFv, V domains shown)
VH: B1 VH
VL: B1 VL with V44A, D50G, D52Y, S66Y, S75R
notes: as for B5
